# Measured values published in US10280205B2, “Method for treating cancer with an activated T lymphocyte that selectively recognizes a cancer cell consisting of specific peptide” (immatics biotechnologies GmbH, priority 2015, dated 2019).
# Molecular target: HLA-A*02:01 (Homo sapiens, UniProt P04439, D140Y/D185E/D98H/E176V/E277Q/G131W/G231S/I119V/I121R/I166T/I218V/L300P/L318F/N151K/N90K/P208A/P217A/Q86G/Q94H/R138H/R169H/T345S)
# Experiment: MHC binding assay: UV-ligand exchange with beta2m ELISA (exchange yield)
# Settings: binding to HLA-A*02:01, β2m ELISA
# Outline: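 Peptide–HLA-A*02:01 complexes formed by UV-induced exchange of a photocleavable ligand for the test peptide. Exchange products diluted 100-fold and captured on streptavidin-coated plates. Stabilized complexes detected with HRP anti-β2m (1 h, 37° C.) and TMB, A450; exchange yield reported.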
row,Substance,"Peptide exchange (MHC class I binding score, peptide exchange yield)"
1,466 (VLIANLEKL; listed as Homo sapiens) [compound 466],“++++” (≥75% = ++++)
2,53 (KMIETDILQKV; listed as Homo sapiens) [compound 53],“++++” (≥75% = ++++)
3,389 (LLADVTHLL; listed as Homo sapiens) [compound 389],“++” (≥20% = ++)
4,429 (GLVNDLARV; listed as Homo sapiens) [compound 429],“++” (≥20% = ++)
5,564 (TVTNAVVTV; listed as Homo sapiens) [compound 564],“+++” (≥50 = +++)
6,278 (QLLDVVLTI; listed as Homo sapiens) [compound 278],“++” (≥20% = ++)
7,232 (ALLEAQDVELYL; listed as Homo sapiens) [compound 232],“++” (≥20% = ++)
8,67 (TLLAEALVTV; listed as Homo sapiens) [compound 67],“+++” (≥50 = +++)
9,52 (FLLAHGLGFLL; listed as Homo sapiens) [compound 52],“++++” (≥75% = ++++)
10,97 (SLINGSFLV; listed as Homo sapiens) [compound 97],“+++” (≥50 = +++)
11,509 (FLFDTKPLIV; listed as Homo sapiens) [compound 509],“+++” (≥50 = +++)
12,600 (ALAAPDIVPAL; listed as Homo sapiens) [compound 600],“+++” (≥50 = +++)
13,273 (NLFQSVREV; listed as Homo sapiens) [compound 273],“++” (≥20% = ++)
14,559 (VTVPPGPSL; listed as Homo sapiens) [compound 559],“++” (≥20% = ++)
15,520 (LAVHPSGVAL; listed as Homo sapiens) [compound 520],“+” (≥10% = +)
16,613 (RLLPPGAVVAV; listed as Homo sapiens) [compound 613],“+++” (≥50 = +++)
17,22 (IMEENPGIFAV; listed as Homo sapiens) [compound 22],“+++” (≥50 = +++)
18,480 (ALLEDSCHYL; listed as Homo sapiens) [compound 480],“+++” (≥50 = +++)
19,569 (KLVDRTWTL; listed as Homo sapiens) [compound 569],“+++” (≥50 = +++)
20,49 (YLPAVFEEV; listed as Homo sapiens) [compound 49],“+++” (≥50 = +++)
21,528 (SVAEGRALMSV; listed as Homo sapiens) [compound 528],“+++” (≥50 = +++)

row,Substance,"Peptide exchange (MHC class I binding score, peptide exchange yield)"
1,179 (KVLNELYTV; listed as Homo sapiens) [compound 179],“+++” (≥50 = +++)
2,42 (VLLQKIVSA; listed as Homo sapiens) [compound 42],“+++” (≥50 = +++)
3,217 (ALIHPVSTV; listed as Homo sapiens) [compound 217],“++” (≥20% = ++)
4,442 (GLLGGGGVLGV; listed as Homo sapiens) [compound 442],“+++” (≥50 = +++)
5,288 (NLINEINGV; listed as Homo sapiens) [compound 288],“+++” (≥50 = +++)
6,91 (IMQDFPAEIFL; listed as Homo sapiens) [compound 91],“++++” (≥75% = ++++)
7,245 (SMIDDLLGV; listed as Homo sapiens) [compound 245],“+++” (≥50 = +++)
8,382 (ALQNYIKEA; listed as Homo sapiens) [compound 382],“++” (≥20% = ++)
9,433 (AMLNEPWAV; listed as Homo sapiens) [compound 433],“+++” (≥50 = +++)
10,284 (ILLSQTTGV; listed as Homo sapiens) [compound 284],“+++” (≥50 = +++)
11,262 (LLWGDLIWL; listed as Homo sapiens) [compound 262],“+++” (≥50 = +++)
12,397 (YLFGERLLEC; listed as Homo sapiens) [compound 397],“+++” (≥50 = +++)
13,18 (YLVAKLVEV; listed as Homo sapiens) [compound 18],“++” (≥20% = ++)
14,578 (FLDPGGPMMKL; listed as Homo sapiens) [compound 578],“+++” (≥50 = +++)
15,328 (ALNDQVFEI; listed as Homo sapiens) [compound 328],“+++” (≥50 = +++)
16,454 (KLPPPPPQA; listed as Homo sapiens) [compound 454],“+++” (≥50 = +++)
17,243 (LLLNELPSV; listed as Homo sapiens) [compound 243],“+++” (≥50 = +++)
18,395 (ALALGGIAVV; listed as Homo sapiens) [compound 395],“++++” (≥75% = ++++)
19,244 (SLFGGTEITI; listed as Homo sapiens) [compound 244],“+++” (≥50 = +++)
20,158 (KLFDVDEDGYI; listed as Homo sapiens) [compound 158],“+++” (≥50 = +++)
21,304 (MTLGQIYYL; listed as Homo sapiens) [compound 304],“+++” (≥50 = +++)

row,Substance,"Peptide exchange (MHC class I binding score, peptide exchange yield)"
1,16 (VLFQGQASL; listed as Homo sapiens) [compound 16],“+++” (≥50 = +++)
2,228 (AMQEYIAVV; listed as Homo sapiens) [compound 228],“++” (≥20% = ++)
3,47 (ILLSVPLLVV; listed as Homo sapiens) [compound 47],“++” (≥20% = ++)
4,495 (FIFSEKPVFV; listed as Homo sapiens) [compound 495],“+++” (≥50 = +++)
5,26 (ALLELAEEL; listed as Homo sapiens) [compound 26],“+++” (≥50 = +++)
6,405 (ALYDVFLEV; listed as Homo sapiens) [compound 405],“++” (≥20% = ++)
7,446 (QLIPALAKV; listed as Homo sapiens) [compound 446],“+++” (≥50 = +++)
8,66 (FLDENIGGVAV; listed as Homo sapiens) [compound 66],“+++” (≥50 = +++)
9,147 (SLLEAVSFL; listed as Homo sapiens) [compound 147],“+++” (≥50 = +++)
10,343 (SLLEVNEESTV; listed as Homo sapiens) [compound 343],“+++” (≥50 = +++)
11,539 (ALFDAQAQV; listed as Homo sapiens) [compound 539],“+++” (≥50 = +++)
12,69 (FQLDPSSGVLVTV; listed as Homo sapiens) [compound 69],“+++” (≥50 = +++)
13,235 (YLNDLHEVLL; listed as Homo sapiens) [compound 235],“++++” (≥75% = ++++)
14,138 (YQYPRAILSV; listed as Homo sapiens) [compound 138],“+++” (≥50 = +++)
15,160 (FLFDEEIEQI; listed as Homo sapiens) [compound 160],“+++” (≥50 = +++)
16,137 (TLVLTLPTV; listed as Homo sapiens) [compound 137],“++++” (≥75% = ++++)
17,295 (VLDRESPNV; listed as Homo sapiens) [compound 295],“+++” (≥50 = +++)
18,152 (ILFEDIFDV; listed as Homo sapiens) [compound 152],“+++” (≥50 = +++)
19,117 (ILPDGEDFLAV; listed as Homo sapiens) [compound 117],“+++” (≥50 = +++)
